± gives the uncertainty stated by the source.
B1: Steroid hormone receptor ERR2, residues 100 to 176; numbered along this chain, O95718 (parent)
chain: KRLCLVCGDIASGYHYGVASCEACKAFFKRTIQGNIEYSCPATNECEITKRRRKSCQACRFMKCLKVGMLKEGVRLD

Variants of: B1
Assay: abundance fitness (aPCA) (normalised: wild type 0, dead -1); higher = more abundant; growth selection in yeast, the domain comes from the species named
Settings: Homo sapiens

| Variant | abundance fitness |
| --- | --- |
| KRLCLVCGGIASGYHYGVASCEACKAFFKRTIQGNIEYSCPATNECEITKRRRKSCQACRFMKCLKVGMLKEGVRLD [D9G] | -0.208 ± 0.045 |
| KRLCLVCGHIASGYHYGVASCEACKAFFKRTIQGNIEYSCPATNECEITKRRRKSCQACRFMKCLKVGMLKEGVRLD [D9H] | -0.365 ± 0.19 |
| KRLCLVCGIIASGYHYGVASCEACKAFFKRTIQGNIEYSCPATNECEITKRRRKSCQACRFMKCLKVGMLKEGVRLD [D9I] | -0.369 ± 0.15 |
| KRLCLVCGLIASGYHYGVASCEACKAFFKRTIQGNIEYSCPATNECEITKRRRKSCQACRFMKCLKVGMLKEGVRLD [D9L] | -0.454 ± 0.067 |
| KRLCLVCGMIASGYHYGVASCEACKAFFKRTIQGNIEYSCPATNECEITKRRRKSCQACRFMKCLKVGMLKEGVRLD [D9M] | -0.216 ± 0.074 |
| KRLCLVCGNIASGYHYGVASCEACKAFFKRTIQGNIEYSCPATNECEITKRRRKSCQACRFMKCLKVGMLKEGVRLD [D9N] | -0.365 ± 0.14 |
| KRLCLVCGPIASGYHYGVASCEACKAFFKRTIQGNIEYSCPATNECEITKRRRKSCQACRFMKCLKVGMLKEGVRLD [D9P] | -0.894 ± 0.25 |
| KRLCLVCGQIASGYHYGVASCEACKAFFKRTIQGNIEYSCPATNECEITKRRRKSCQACRFMKCLKVGMLKEGVRLD [D9Q] | -0.143 ± 0.078 |
| KRLCLVCGRIASGYHYGVASCEACKAFFKRTIQGNIEYSCPATNECEITKRRRKSCQACRFMKCLKVGMLKEGVRLD [D9R] | -0.508 ± 0.066 |
| KRLCLVCGSIASGYHYGVASCEACKAFFKRTIQGNIEYSCPATNECEITKRRRKSCQACRFMKCLKVGMLKEGVRLD [D9S] | -0.36 ± 0.069 |
| KRLCLVCGVIASGYHYGVASCEACKAFFKRTIQGNIEYSCPATNECEITKRRRKSCQACRFMKCLKVGMLKEGVRLD [D9V] | -0.43 ± 0.063 |
| KRLCLVCGWIASGYHYGVASCEACKAFFKRTIQGNIEYSCPATNECEITKRRRKSCQACRFMKCLKVGMLKEGVRLD [D9W] | -0.301 ± 0.072 |
| KRLCLVCGYIASGYHYGVASCEACKAFFKRTIQGNIEYSCPATNECEITKRRRKSCQACRFMKCLKVGMLKEGVRLD [D9Y] | -0.351 ± 0.11 |
| KRLCLVCGDAASGYHYGVASCEACKAFFKRTIQGNIEYSCPATNECEITKRRRKSCQACRFMKCLKVGMLKEGVRLD [I10A] | 0.275 ± 0.046 |
| KRLCLVCGDCASGYHYGVASCEACKAFFKRTIQGNIEYSCPATNECEITKRRRKSCQACRFMKCLKVGMLKEGVRLD [I10C] | -0.058 ± 0.077 |
| KRLCLVCGDDASGYHYGVASCEACKAFFKRTIQGNIEYSCPATNECEITKRRRKSCQACRFMKCLKVGMLKEGVRLD [I10D] | 0.195 ± 0.067 |
| KRLCLVCGDEASGYHYGVASCEACKAFFKRTIQGNIEYSCPATNECEITKRRRKSCQACRFMKCLKVGMLKEGVRLD [I10E] | 0.045 ± 0.051 |
| KRLCLVCGDFASGYHYGVASCEACKAFFKRTIQGNIEYSCPATNECEITKRRRKSCQACRFMKCLKVGMLKEGVRLD [I10F] | 0.056 ± 0.091 |

| Variant | abundance fitness |
| --- | --- |
| KRLCLVCGDHASGYHYGVASCEACKAFFKRTIQGNIEYSCPATNECEITKRRRKSCQACRFMKCLKVGMLKEGVRLD [I10H] | -0.011 ± 0.084 |
| KRLCLVCGDKASGYHYGVASCEACKAFFKRTIQGNIEYSCPATNECEITKRRRKSCQACRFMKCLKVGMLKEGVRLD [I10K] | 0.037 ± 0.06 |
| KRLCLVCGDLASGYHYGVASCEACKAFFKRTIQGNIEYSCPATNECEITKRRRKSCQACRFMKCLKVGMLKEGVRLD [I10L] | -0.139 ± 0.056 |
| KRLCLVCGDMASGYHYGVASCEACKAFFKRTIQGNIEYSCPATNECEITKRRRKSCQACRFMKCLKVGMLKEGVRLD [I10M] | -0.065 ± 0.054 |
| KRLCLVCGDNASGYHYGVASCEACKAFFKRTIQGNIEYSCPATNECEITKRRRKSCQACRFMKCLKVGMLKEGVRLD [I10N] | -0.393 ± 0.11 |
| KRLCLVCGDPASGYHYGVASCEACKAFFKRTIQGNIEYSCPATNECEITKRRRKSCQACRFMKCLKVGMLKEGVRLD [I10P] | 0.065 ± 0.072 |
| KRLCLVCGDRASGYHYGVASCEACKAFFKRTIQGNIEYSCPATNECEITKRRRKSCQACRFMKCLKVGMLKEGVRLD [I10R] | -0.046 ± 0.044 |
| KRLCLVCGDSASGYHYGVASCEACKAFFKRTIQGNIEYSCPATNECEITKRRRKSCQACRFMKCLKVGMLKEGVRLD [I10S] | -0.033 ± 0.055 |
| KRLCLVCGDTASGYHYGVASCEACKAFFKRTIQGNIEYSCPATNECEITKRRRKSCQACRFMKCLKVGMLKEGVRLD [I10T] | 0.02 ± 0.062 |
| KRLCLVCGDVASGYHYGVASCEACKAFFKRTIQGNIEYSCPATNECEITKRRRKSCQACRFMKCLKVGMLKEGVRLD [I10V] | 0.242 ± 0.041 |
| KRLCLVCGDWASGYHYGVASCEACKAFFKRTIQGNIEYSCPATNECEITKRRRKSCQACRFMKCLKVGMLKEGVRLD [I10W] | 0.074 ± 0.06 |
| KRLCLVCGDYASGYHYGVASCEACKAFFKRTIQGNIEYSCPATNECEITKRRRKSCQACRFMKCLKVGMLKEGVRLD [I10Y] | -0.029 ± 0.084 |
| KRLCLVCGDICSGYHYGVASCEACKAFFKRTIQGNIEYSCPATNECEITKRRRKSCQACRFMKCLKVGMLKEGVRLD [A11C] | -0.177 ± 0.092 |
| KRLCLVCGDIDSGYHYGVASCEACKAFFKRTIQGNIEYSCPATNECEITKRRRKSCQACRFMKCLKVGMLKEGVRLD [A11D] | -0.241 ± 0.1 |
| KRLCLVCGDIESGYHYGVASCEACKAFFKRTIQGNIEYSCPATNECEITKRRRKSCQACRFMKCLKVGMLKEGVRLD [A11E] | -0.11 ± 0.063 |
| KRLCLVCGDIFSGYHYGVASCEACKAFFKRTIQGNIEYSCPATNECEITKRRRKSCQACRFMKCLKVGMLKEGVRLD [A11F] | -0.213 ± 0.1 |
| KRLCLVCGDIGSGYHYGVASCEACKAFFKRTIQGNIEYSCPATNECEITKRRRKSCQACRFMKCLKVGMLKEGVRLD [A11G] | -0.013 ± 0.043 |
